Laboratory results as given in IntAct's records for PubMed 12878161.

B1: Tripartite motif-containing protein 5 (Homo sapiens), Q9C035-4 (parent)
chain: MASGILVNVKEEVTCPICLELLTQPLSLDCGHSFCQACLTANHKKSMLDKGESSCPVCRISYQPENIRPNRHVANIVEKLREVKLSPEGQKVDHCARHGEKLLLFCQEDGKVICWLCERSQEHRGHHTFLTEEVAREYQVKLQAALEMLRQKQQEAEELEADIREEKASWKTQIQYDKTNVLADFEQLRDILDWEESNELQNLEKEEEDILKSLTNSETEMVQQTQSLRELISDLEHRLQGSVMELLQGVDGVIKRTENVTLKKPETFPKNQRRVFRAPDLKGMLEVFRELTDVRRYWGWSAMARSRFTATSTSQIQAILLPQPPK
partner: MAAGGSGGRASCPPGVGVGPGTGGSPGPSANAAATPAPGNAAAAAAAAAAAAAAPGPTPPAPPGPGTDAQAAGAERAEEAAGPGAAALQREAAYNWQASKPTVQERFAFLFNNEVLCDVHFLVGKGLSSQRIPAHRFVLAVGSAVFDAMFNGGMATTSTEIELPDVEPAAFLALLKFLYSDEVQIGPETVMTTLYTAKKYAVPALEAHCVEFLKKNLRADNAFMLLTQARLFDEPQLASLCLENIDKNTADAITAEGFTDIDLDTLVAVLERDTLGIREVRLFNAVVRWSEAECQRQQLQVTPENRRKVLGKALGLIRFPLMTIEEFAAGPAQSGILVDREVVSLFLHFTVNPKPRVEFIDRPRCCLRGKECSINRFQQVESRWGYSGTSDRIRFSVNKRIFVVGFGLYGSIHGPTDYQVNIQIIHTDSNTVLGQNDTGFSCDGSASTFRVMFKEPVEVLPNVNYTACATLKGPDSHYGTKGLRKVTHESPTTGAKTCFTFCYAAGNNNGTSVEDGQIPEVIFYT

Variants of: B1
Conditions: with btbd2_human BTBD2, Q9BX70

Variant	effect of a mutation on the interaction
MASGILVNVKEEVTAPIALELLTQPLSLDCGHSFCQACLTANHKKSMLDKGESSCPVCRISYQPENIRPNRHVANIVEKLREVKLSPEGQKVDHCARHGEKLLLFCQEDGKVICWLCERSQEHRGHHTFLTEEVAREYQVKLQAALEMLRQKQQEAEELEADIREEKASWKTQIQYDKTNVLADFEQLRDILDWEESNELQNLEKEEEDILKSLTNSETEMVQQTQSLRELISDLEHRLQGSVMELLQGVDGVIKRTENVTLKKPETFPKNQRRVFRAPDLKGMLEVFRELTDVRRYWGWSAMARSRFTATSTSQIQAILLPQPPK [C15A;C18A]	decreasing interaction
